The record followed here is patent US20180016324A1 (Regeneron, published 2018).

For assay [1], the target named is T1, ZIKV prM/E polyprotein on virus-like particles (VLPs) from HEK293T/17 cells (Zika virus, UniProt A0A024B7W1 123-795).
T1 construct: also called ZIKV prM/E VLPs; Zika prM/E VLPs
The assay is described as follows: MSD ECL, VLPs on plate.

Assay [2] concerns the target T2, ZIKV (prM80E) with a C-terminal myc-myc-hexahistidine tag (Zika virus, UniProt A0A024B7W1 104-694).
T2 construct: also called ZIKV (prM80E)-mmH; ZIKV-mmH
The assay is described as follows: SPR, mAb captured, 37C.

Assay [3] concerns the target T2, ZIKV (prM80E) with a C-terminal …. The assay is described as follows: SPR, mAb captured, 37C. The source holds these as a separate data set. For orientation: In SPR one partner is held on a chip, and binding of the other changes the refractive index at the surface.
Assay [4] shares this target. Kind of assay: SPR, mAb captured, 25C.
For assay [5] the target is unchanged. The assay is described as follows: SPR, mAb captured, 37C. This is another data set of the same source.
Assay [6] concerns the target ZIKV envelope glycoprotein (E) of strain MR766 (Uganda 1947) (Zika virus, UniProt Q32ZE1 291-790). Kind of assay: cell-based or functional assay.
Assay [7] addresses ZIKV envelope glycoprotein (E) of strain PRVABC59 (Puerto Rico 2015) (Zika virus). Kind of assay: cell-based or functional assay.
Assay [8] concerns the target ZIKV envelope glycoprotein (E) of strain FLR (Colombia 2015) (Zika virus). Kind of assay: cell-based or functional assay.
Assay [9] addresses T2, ZIKV (prM80E) with a C-terminal …. Kind of assay: SPR, mAb captured, 37C, pH 7.4.
In assay [10] the target is ZIKV E protein with escape mutations T311I and K369E (Zika virus). The assay is described as follows: cell-based or functional assay.
Assay [11] addresses T2, ZIKV (prM80E) with a C-terminal …. Kind of assay: SPR, mAb captured, 37C, pH 6.0 chase.
Assay [12] has the same target. Kind of assay: SPR, mAb captured, 37C, pH 5.0 chase.
The target is the same in assay [13]. Kind of assay: SPR, mAb captured, 37C, pH 5.5 chase.

B1: H4H25703N (antibody, V domains shown)
VH: QVQLVESGGGVVQPGRSLRLSCAASGFTFNYYGMHWVRQAPGKGLEWVAVISYDGTNKYYADSVKGRFTTSRDNSKNTLYLQMNSLRAEDTALYYCARDRGGRFDYWGQGIQVTVSS
VL: EIVLTQSPDTLSLSPGERATLSCRASQSVSSNYLAWYQQKPGQAPRLLIYGASSRATGIPDRFSGSGSGTDFTLTISRLEPEDFAVYYCQRYGTSPLTFGGGTKVEIKR
For orientation: EC50 means the concentration at which the effect is half-maximal. A low value points to greater potency. Usually Kd stands for the free concentration of one partner at which half of the binding sites on the other are occupied at equilibrium, for simple one-to-one binding. Read a low Kd as tighter binding. In general, koff refers to the rate constant with which the complex falls apart. Read a low koff as slow dissociation. One may read the kon as the rate constant with which the complex forms. A low value points to slower complex formation. Broadly, the t½ is the time needed for the level to fall by half in the phase considered. B1 returned an EC50 in assay [1] of 0.0846 nM. In [2], the “t½ pH 7.4/t½ pH 6.0” value turned out to be 1.3. Besides, the “t½ pH 7.4/t½ pH 5.0” value in [3] is 1.3. For the same molecule, the “t½ pH 7.4/t½ pH 5.5” value in [3] is 1.5. For the same molecule, the results for the Kd in assay [4] and in assay [5] were 0.542 nM and 2.39 nM, respectively. The off-rate (koff) amounted to 0.000307 s⁻¹ in assay [4]; 0.00177 s⁻¹ in [5]; 0.00211 s⁻¹ in assay [9]; 0.00283 s⁻¹ in assay [11]; 0.0028 s⁻¹ in [12]; 0.00326 s⁻¹ in [13]. Also, the kon came out at 566000 M⁻¹ s⁻¹ in assay [4] and 738000 M⁻¹ s⁻¹ in assay [5]. The t½ in assay [4] amounted to 37.6 min; in assay [5] it was 6.5 min; in assay [9], 5.47 min; in assay [11] it was 4.08 min; in assay [12] it was 4.1 min; in assay [13], 3.54 min. The entries for the “neutralization IC50, Vero cells” value in assay [6], in assay [7] and in assay [8] were 0.0445 nM, 0.251 nM and 0.0619 nM, respectively. In [10], the “IC50 (read off the curve)” value is about 1 nM.
